Legend:
Format in all cases: biochemical
12‐LOX = molecular target: T1, 12‐LOX (Homo sapiens, UniProt P18054); experiment: inhibition of purified recombinant 12-LOX with […] AA as substrate
T1 construct: gene ALOX12
T1 sequence (P18054 1-663): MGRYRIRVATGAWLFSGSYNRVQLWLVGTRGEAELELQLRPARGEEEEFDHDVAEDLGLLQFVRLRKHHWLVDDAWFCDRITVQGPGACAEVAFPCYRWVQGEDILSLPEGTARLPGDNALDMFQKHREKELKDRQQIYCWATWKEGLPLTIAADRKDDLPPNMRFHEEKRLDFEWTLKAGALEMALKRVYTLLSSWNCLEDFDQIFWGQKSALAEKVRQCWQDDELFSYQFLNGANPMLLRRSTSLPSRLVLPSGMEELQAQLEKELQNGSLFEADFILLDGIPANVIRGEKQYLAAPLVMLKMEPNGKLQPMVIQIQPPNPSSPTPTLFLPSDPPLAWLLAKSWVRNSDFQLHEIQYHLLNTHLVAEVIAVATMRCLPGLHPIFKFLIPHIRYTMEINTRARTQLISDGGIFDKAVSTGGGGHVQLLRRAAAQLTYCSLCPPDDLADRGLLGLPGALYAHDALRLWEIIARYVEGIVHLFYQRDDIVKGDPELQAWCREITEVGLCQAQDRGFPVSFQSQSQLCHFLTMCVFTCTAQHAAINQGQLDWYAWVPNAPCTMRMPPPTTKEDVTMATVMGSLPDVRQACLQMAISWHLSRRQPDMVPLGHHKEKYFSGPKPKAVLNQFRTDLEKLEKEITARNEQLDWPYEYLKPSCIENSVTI

[1] = substrate: CC/C=C\C[C@@H](/C=C/C=C\C/C=C\C/C=C\CCCC(=O)O)OO; experiment: steady-state UV kinetics with purified human 12-LOX (kM); LC-MS product profile; details: also described as a […]‐LOX allosteric regulator that affects secondary product formation
[2] = substrate: CCCCC[C@@H](/C=C/C=C\C/C=C\C/C=C\CCCC(=O)O)OO; experiment: as above
[3] = substrate: CCCCC[C@@H](/C=C/C=C\C/C=C\CCCCCCC(=O)O)OO; experiment: as above
[4] = substrate: CC/C=C\C/C=C\C/C=C\C/C=C\C/C=C\CCCC(=O)O; experiment: steady-state UV kinetics with purified human 12-LOX (kM)
[5] = substrate: CCCCC/C=C\C/C=C\C/C=C\C/C=C\CCCC(=O)O; experiment: as above
[6] = substrate: CCCCC/C=C\C/C=C\C/C=C\CCCCCCC(=O)O; experiment: as above

CCCCC[C@H](O)/C=C/C=C\C/C=C\CCCCCCC(=O)O [15‐HETrE] was tested. Which IC50 (12‐LOX) did it give?
The IC50 was 105 ± 55 µM.

How did the IC50 (12‐LOX) turn out when CCCCC[C@H](O)/C=C/C=C\C/C=C\C/C=C\CCCC(=O)O [15‐HETE] was run?
The IC50 was 46 ± 19 µM.

CC/C=C\C[C@H](O)/C=C/C=C\C/C=C\C/C=C\CCCC(=O)O [15‐HEPE] was tested. Which IC50 (12‐LOX) did it give?
The IC50 was 142 ± 11 µM.

B1: 12‐LOX (Homo sapiens) (protein)
chain: MGRYRIRVATGAWLFSGSYNRVQLWLVGTRGEAELELQLRPARGEEEEFDHDVAEDLGLLQFVRLRKHHWLVDDAWFCDRITVQGPGACAEVAFPCYRWVQGEDILSLPEGTARLPGDNALDMFQKHREKELKDRQQIYCWATWKEGLPLTIAADRKDDLPPNMRFHEEKRLDFEWTLKAGALEMALKRVYTLLSSWNCLEDFDQIFWGQKSALAEKVRQCWQDDELFSYQFLNGANPMLLRRSTSLPSRLVLPSGMEELQAQLEKELQNGSLFEADFILLDGIPANVIRGEKQYLAAPLVMLKMEPNGKLQPMVIQIQPPNPSSPTPTLFLPSDPPLAWLLAKSWVRNSDFQLHEIQYHLLNTHLVAEVIAVATMRCLPGLHPIFKFLIPHIRYTMEINTRARTQLISDGGIFDKAVSTGGGGHVQLLRRAAAQLTYCSLCPPDDLADRGLLGLPGALYAHDALRLWEIIARYVEGIVHLFYQRDDIVKGDPELQAWCREITEVGLCQAQDRGFPVSFQSQSQLCHFLTMCVFTCTAQHAAINQGQLDWYAWVPNAPCTMRMPPPTTKEDVTMATVMGSLPDVRQACLQMAISWHLSRRQPDMVPLGHHKEKYFSGPKPKAVLNQFRTDLEKLEKEITARNEQLDWPYEYLKPSCIENSVTI
With B1 as the molecule, how does the Km [1] read?
Its Km is 9.2 ± 1 µM.

And the kcat [1]?
Its kcat is 0.93 ± 0.06 s⁻¹.

What about the kcat/Km [1] of the same molecule?
Its kcat/Km is 100000 ± 8000 M⁻¹ s⁻¹.

And the Km [2]?
Its Km is 5.8 ± 0.4 µM.

What about the kcat [2] of the same molecule?
The kcat was 1.5 ± 0.05 s⁻¹.

What about the kcat/Km [2] of the same molecule?
Its kcat/Km is 260000 ± 1000 M⁻¹ s⁻¹.

And the Km [3]?
The Km was 11 ± 1 µM.

And the kcat [3]?
The kcat was 0.96 ± 0.05 s⁻¹.

And the kcat/Km [3]?
Its kcat/Km is 86000 ± 4000 M⁻¹ s⁻¹.

And the Km [4]?
The Km was 1 ± 0.2 µM.

And the kcat [4]?
The kcat was 9 ± 0.5 s⁻¹.

And the kcat/Km [4]?
Its kcat/Km is 8.7e+06 ± 1.2e+06 M⁻¹ s⁻¹.

And the Km [5]?
The Km was 0.49 ± 0.07 µM.

What about the kcat [5] of the same molecule?
Its kcat is 11 ± 0.2 s⁻¹.

What about the kcat/Km [5] of the same molecule?
Its kcat/Km is 2.2e+07 ± 3e+06 M⁻¹ s⁻¹.

What about the Km [6] of the same molecule?
The Km was 2.5 ± 0.2 µM.

And the kcat [6]?
The kcat was 12 ± 0.3 s⁻¹.

And the kcat/Km [6]?
The kcat/Km was 4.9e+06 ± 300000 M⁻¹ s⁻¹.

Reference: PMC9883682, “Fatty acids negatively regulate platelet function through formation of noncanonical 15‐lipoxygenase‐derived eicosanoids” (Pharmacology Research & Perspectives, 2023)
